From the nanobody polyreactivity screen of Harvey et al. (2022)

assay: yeast display, Sf9 membrane polyspecificity reagent, FACS + sequencing; frameworks hold sequencing errors
Outline: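 Genes from sorted yeast were amplified by colony PCR, read by MiSeq 2 × 250 sequencing and filtered on CDR length. These cells carried a synthetic nanobody library in Saccharomyces cerevisiae BJ5465 and were sorted by FACS into low and high (top ~1%) gates on anti-HA and streptavidin fluorescence. Polyreactivity is labelled according to the gate of origin.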

Sequence | polyreactivity (PSR sort gate)
QVQLVESGGGLVQAGGSLRLSCAASGSTFPDNAMVWYRQAPGKEREFVATITWRGGRTNYADSVKGRFTISRDNAMNTVYLQMNSLKPEDTAFYYCDKVVRYARSNEYDTWGQGTQLTVSS | low polyreactivity
QVQLVESGGGLVQAGGSLRLSCAASGSTFPEYAMGWYRKAPGKERELVAAISKSGGRTYYADSVKGRFTISRDNAKNTVYLQMNSLNPEDTAVYYCARDSYPHGRARFDYWGQGTQVTVSS | high polyreactivity
QVQLVESGGGLVQAGGSLRLSCAASGSTFPEYAMGWYRQAPGKERELVADISSGGDTSYADSVKGRFTISRDNAKNTVYLQMNSLNPEDTAVYYCAAGTAGTTGSPKFSGYGYDYWGQGTQVTVSS | low polyreactivity
QVQLVESGGGLVQAGGSLRLSCAASGSTFPFNAMGWYRQAPGKERELVAGIRSRGGSTYYADSVKGRFTISRDNAKNTVYLQMNSLIPEDTAVSSCAKVYKDRDDLFYYWGQGTQVTVSS | low polyreactivity
QVQLVESGGGLVQAGGSLRLSCAASGSTFPFYAMGWYRQAPGKERELVAAITSGGSTYADSVKGRFTISRDNAKNTVYLQMNSLKPEDTAVYYCAASWPRWWRFGYWGQGTQVTVSS | low polyreactivity
QVQLVESGGGLVQAGGSLRLSCAASGSTFPFYDMGWYRQAPGKERELVAAIRSGGSTYADSVKGRFTISRDNAKNTVYLQMNSLKPEDTAVYYCAKRCPSNRYSRYRVKYDYWGQGSQVTVSS | low polyreactivity
QVQLVESGGGLVQAGGSLRLSCAASGSTFPFYDMGWYRQAPGKERELVTAIRSGGSTYADSVKGRFTISRDNAKNTVYLQMNSLKPVDTAVYYCAKRCPSIRYSRYRVKYDYWGQGTQVTVSS | low polyreactivity
QVQLVESGGGLVQAGGSLRLSCAASGSTFPGYAMGWYRQAPGKERELVAAINGRGGSTYYADSVKGRFTISRDNAKNTVYLQMNSLKPEDSAVYYCAAFVGSRSAKYIKYWGQGTQVTVSS | high polyreactivity
QVQLVESGGGLVQAGGSLRLSCAASGSTFPGYAMGWYRQAPGKERELVAAISASGGSTYYADSVKGRFTISRDNAKNTVYLQMNSLKPEDTAVYYCAKVLSRGASAHDYWGQGTQVTVSS | low polyreactivity
QVQLVESGGGLVQAGGSLRLSCAASGSTFPGYAMGWYRQAPGKERELVAAISTSGGRTYYADSVKGRFTISRDNAKNTVYLQMNSLKPEDTAVYYCAADASTWYTEEYWGQGTQVTVSS | low polyreactivity
QVQLVESGGGLVQAGGSLRLSCAASGSTFPIYAMGWYRQAPGKERELVAAITHRDGSTYYADSVKGRFTISRDNAKNTVYLQMNSLKPEDTAVYYCAAETYVVWFTFDYWGQGTQVTVSS | high polyreactivity
QVQLVESGGGLVQAGGSLRLSCAASGSTFPLYAMGWYRQAPGKERELVAAITGGGGRTYYADSVKGRFTISRDNAKNTVYLQMNSLKPEETAVYYCAASKQRYYRWWTTPGYDYWGQGTQVTVSS | low polyreactivity
QVQLVESGGGLVQAGGSLRLSCAASGSTFPPNAMGWYRPAPGKERELVAVISNGGSNTRYADSVKGRFTISRDNAKNTVYLQMNSLKPEDTAVYYCAADYEYSGYGYWGQGTQVTVSS | high polyreactivity
QVQLVESGGGLVQAGGSLRLSCAASGSTFPPNAMGWYRQAPGKESELVAAISFSSGRTYYADSVKGRFTISRDNAKNTVYLQMNSLKPEDTAVYYCAADHGYWGQGTQVTVSS | low polyreactivity
QVQLVESGGGLVQAGGSLRLSCAASGSTFPQNAMGWTRQAPGKERELVAVISRSGGNPYYADSVKGRFTISRDIAKNSVYLQMNSLKPEDTAVYYCATRVKTTYDYWGQGTQVTVSS | low polyreactivity
QVQLVESGGGLVQAGGSLRLSCAASGSTFPQYAMGWYRQAPGKERELVAAISRSGGSTYYADSVKGRFTISRDNAKNTVYLQMNSLKPEDTAVYYCNVKSGFWFYPTMDYWGQGTQVTVSS | high polyreactivity
QVQLVESGGGLVQAGGSLRLSCAASGSTFPRNAMGWSRQAPGKERELVAAISFRGSTTYYADSVKGRFTISRDNAKNTVYLQMNSLKPEDTAVYYCAADGGRQARTYSRYYWGQGTQVTVSS | high polyreactivity
